For the series, the system named is T1, N[C@H](CO)C(=O)O.
T1 construct: human recombinant DAAO enzyme
Kind of series: Amplex Red H2O2 detection; Michaelis constant (in-house data). It counts as biochemical, Homo sapiens. As to conditions: FAD.

Chain of D-amino acid oxidase (DAAO) (Homo sapiens) (chain, as listed by the source): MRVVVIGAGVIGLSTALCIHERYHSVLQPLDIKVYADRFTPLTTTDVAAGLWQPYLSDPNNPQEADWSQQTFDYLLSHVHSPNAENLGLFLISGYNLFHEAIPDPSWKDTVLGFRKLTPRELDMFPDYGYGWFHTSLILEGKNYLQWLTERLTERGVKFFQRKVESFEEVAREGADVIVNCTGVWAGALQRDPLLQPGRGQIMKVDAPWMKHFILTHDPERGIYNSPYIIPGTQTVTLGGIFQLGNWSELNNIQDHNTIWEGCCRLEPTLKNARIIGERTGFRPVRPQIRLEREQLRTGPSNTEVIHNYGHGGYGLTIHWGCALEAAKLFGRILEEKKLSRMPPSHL

Consider “D-amino acid oxidase (DAAO) (Homo sapiens)”, for which the Km – broadly, the substrate concentration at which the rate is half of its maximum – came to 1200 µM.
